Columns and labels:
[1] = target: T1, BSA (bovine, UniProt P02769); assay: ELISA: human IgG1 at 250 nM on protein-coated wells, anti-Fc-HRP
T1 construct: negative control protein; also called irrelevant protein coated on ELISA wells

[2] = target: interleukin 13 (IL13) (UniProt P35225 35-146, limits assumed); assay: as above
[3] = target: T2, HER2 ECD; assay: as above
T2 construct: one of the irrelevant proteins; also called irrelevant protein coated on ELISA wells

[4] = target: T3, interleukin 5 (IL5) (human, UniProt P05113 20-134); assay: SPR (Biacore), Fab over CM5 chip with immobilized human IL5, 25 °C
T3 construct: also called human IL5 (R&D Systems)
T3 sequence (looked up): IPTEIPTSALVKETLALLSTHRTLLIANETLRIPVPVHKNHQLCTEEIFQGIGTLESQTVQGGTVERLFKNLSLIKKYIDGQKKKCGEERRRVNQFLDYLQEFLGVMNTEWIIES

[5] = target: T4, interleukin 4 (IL4) (UniProt P05112 25-153); assay: SPR (Biacore), Fab over CM5 chip with immobilized IL4, 25 °C
T4 sequence (looked up): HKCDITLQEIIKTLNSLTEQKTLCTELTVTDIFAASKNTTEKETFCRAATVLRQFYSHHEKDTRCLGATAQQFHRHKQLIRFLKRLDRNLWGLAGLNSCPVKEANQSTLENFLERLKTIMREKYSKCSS

[6] = target: T3, interleukin 5 (IL5); assay: SPR, Fab over immobilized IL5
[7] = target: T3, interleukin 5 (IL5); assay: phage competition ELISA (phage IC50), soluble IL5 against IL5-coated wells
Procedure: Fab displaying phage was first incubated with serial dilutions of the respective antigens in solution for 2 h, unbound phage was then briefly captured by antigen coated ELISA wells and detected with anti-M13 HRP conjugate. The concentration of antigen inhibiting 50% of phage binding to antigen coated well is calculated as IC₅₀. NB denotes no detectable binding of phage clone directly to the antigens coated wells.
The relative affinity of each clone was assessed by phage IC₅₀ as above.

interleukin 13 (IL13), sequence (P35225 35-146 limits assumed): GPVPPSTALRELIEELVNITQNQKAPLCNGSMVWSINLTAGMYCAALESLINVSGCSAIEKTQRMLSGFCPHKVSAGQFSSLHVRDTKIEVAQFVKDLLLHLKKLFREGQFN
T1 sequence (P02769 25-607 limits assumed): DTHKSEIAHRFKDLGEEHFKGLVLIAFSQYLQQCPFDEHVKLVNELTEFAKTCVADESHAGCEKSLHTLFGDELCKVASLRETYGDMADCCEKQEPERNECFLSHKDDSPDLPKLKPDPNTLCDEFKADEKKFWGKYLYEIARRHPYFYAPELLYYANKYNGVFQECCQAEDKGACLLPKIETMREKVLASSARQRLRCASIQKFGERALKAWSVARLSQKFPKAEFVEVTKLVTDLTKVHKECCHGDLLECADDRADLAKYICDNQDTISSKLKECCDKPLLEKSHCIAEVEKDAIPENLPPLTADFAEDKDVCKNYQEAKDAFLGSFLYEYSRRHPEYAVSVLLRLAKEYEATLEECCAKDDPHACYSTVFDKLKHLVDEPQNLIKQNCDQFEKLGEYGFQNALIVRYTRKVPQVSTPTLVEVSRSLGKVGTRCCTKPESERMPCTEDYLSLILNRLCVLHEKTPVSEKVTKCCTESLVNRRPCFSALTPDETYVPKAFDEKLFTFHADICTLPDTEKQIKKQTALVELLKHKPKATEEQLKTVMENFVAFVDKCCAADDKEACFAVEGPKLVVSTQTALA

Binder | IC50 [7] | other results
B1 as human IgG1 (antibody, V domains shown, also called IL4/IL5 dual specific antibody B1) VH: EVQLVQSGAEVKKPGASVKVSCKASGYTFTDYLMHWVRQAPGQGLEWIAVIVSITGRTYYADDFKGRVTITRDTSTSTAYLELSSLRSEDTAVYYCARGGIFYGMDYWGQGTLVTVSS VL: DIQMTQSPSSLSASVGDRVTITCKASQSVINDAAWYQQKPGKAPKLLIYYTSHRYTGVPSRFSGSGSGTDFTLTISSLQEDFATYYCQQDYTPFPLTFGQGTKVEIKR |  | binding result [1]: no binding (tested: 250 nM); binding result [2]: no binding (tested: 250 nM); binding result [3]: no binding (tested: 250 nM)
1C36, affinity-matured variant of E7, purified as Fab (Fab, V domains shown, Purified Fab for SPR) VH: EVQLVQSGAEVKKPGASVKVSCKASGYTFTDYFIHWVRQAPGQGLEWIGGIVYDATGFTTYAEEFKGRVTITRDTSTSTAYLELSSLRSEDTAVYYCARGGIFYGMDYWGQGTLVTVSS VL: DIQMTQSPSSLSASVGDRVTITCKASQSVINDAAWYQQKPGKAPKLLIYYTSHRYTGVPSRFSGSGSGTDFTLTISSLQEDFATYYCQQDYTHPWTFGQGTKVEIKR |  | koff [4]: 0.000221 s⁻¹; kon [4]: 9180 M⁻¹ s⁻¹; Kd [5]: 3.5 nM; koff [5]: 0.00197 s⁻¹; kon [5]: 557000 M⁻¹ s⁻¹; Kd [6]: 24.1 nM; fold improvement of affinity toward IL5 against E7 [6]: 37 fold
1C.91 (Fab, V domains shown) VH: EVQLVQSGAEVKKPGASVKVSCKASGYTFTDYFIHWVRQAPGQGLEWIGGIVYDATGFTTYAEDFKGRVTITRDTSTSTAYLELSSLRSEDTAVYYCARGGIFYGMDYWGQGTLVTVSS VL: DIQMTQSPSSLSASVGDRVTITCKASQSVINDAAWYQQKPGKAPKLLIYYTSHRYTGVPSRFSGSGSGTDFTLTISSLQEDFATYYCQQDYTSPWTFGQGTKVEIKR | ~1000 nM | 
1C.11 (Fab, V domains shown) VH: EVQLVQSGAEVKKPGASVKVSCKASGYTFTDYFIHWVRQAPGQGLEWIGGIVYDATGFTIYAENFKGRVTITRDTSTSTAYLELSSLRSEDTAVYYCARGGIFYGMDYWGQGTLVTVSS VL: DIQMTQSPSSLSASVGDRVTITCKASQSVINDAAWYQQKPGKAPKLLIYYTSHRYTGVPSRFSGSGSGTDFTLTISSLQEDFATYYCQQDYISPWTFGQGTKVEIKR | ~1000 nM | 
1C.42 (Fab, V domains shown) VH: EVQLVQSGAEVKKPGASVKVSCKASGYTFTDYFIHWVRQAPGQGLEWIGGIVYDATGFTTYADSFKGRVTITRDTSTSTAYLELSSLRSEDTAVYYCARGGIFYGMDYWGQGTLVTVSS VL: DIQMTQSPSSLSASVGDRVTITCKASQSVINDAAWYQQKPGKAPKLLIYYTSHRYTGVPSRFSGSGSGTDFTLTISSLQEDFATYYCQQDYTHPWTFGQGTKVEIKR | 8.5 nM | 
2B.28 (Fab, V domains shown) VH: EVQLVQSGAEVKKPGASVKVSCKASGYTFTDYFIHWVRQAPGQGLEWIAGIVYDATGFTTYADNFKGRVTITRDMSTSTVYLELSSLRSEDTAVYYCARGGIFYGMDYWGQGTLVTVSS VL: DIQMTQSPSSLSASVGDRVTITCKASQSVINDAAWYQQKPGKAPKLLIYYTSHRYTGVPSRFSGSGSGTDFTLTISSLQEDFATYYCQQDYTSPWTFGQGTKVEIKR | 1.1 nM | 
2B.35 (Fab, V domains shown) VH: EVQLVQSGAEVKKPGASVKVSCKASGYTFTDYFIHWVRQAPGQGLEWIAGIVYDATGFTTYADTFKGRVTITRDPSTSTVYLELSSLRSEDTAVYYCARGGIFYGMDYWGQGTLVTVSS VL: DIQMTQSPSSLSASVGDRVTITCKASQSVINDAAWYQQKPGKAPKLLIYYTSHRYTGVPSRFSGSGSGTDFTLTISSLQEDFATYYCQQDYTSPWTFGQGTKVEIKR | 1.5 nM | 
1C.94 (Fab, V domains shown) VH: EVQLVQSGAEVKKPGASVKVSCKASGYTFTDYFIHWVRQAPGQGLEWIGGIVYDATGFTAYADDFKGRVTITRDTSTSTAYLELSSLRSEDTAVYYCARGGIFYGMDYWGQGTLVTVSS VL: DIQMTQSPSSLSASVGDRVTITCKASQSVINDAAWYQQKPGKAPKLLIYYTSHRYTGVPSRFSGSGSGTDFTLTISSLQEDFATYYCQQDYTSPWTFGQGTKVEIKR | ~1000 nM | 
2C.75 (Fab, V domains shown) VH: EVQLVQSGAEVKKPGASVKVSCKASGYTFTDYFIHWVRQAPGQGLEWIAGIVYDATGFTTYADFFKGRVTITRDTSTSTVYLELSSLRSEDTAVYYCARGGIFYGMDYWGQGTLVTVSS VL: DIQMTQSPSSLSASVGDRVTITCKASQSVINDAAWYQQKPGKAPKLLIYYTSHRYTGVPSRFSGSGSGTDFTLTISSLQEDFATYYCQQDYTSPWTFGQGTKVEIKR | 0.6 nM | 
2B.48 (Fab, V domains shown) VH: EVQLVQSGAEVKKPGASVKVSCKASGYTFTDYFIHWVRQAPGQGLEWIAGIVYDATGFTTYADAFKGRVTITRDTSTSTVYLELSSLRSEDTAVYYCARGGIFYGMDYWGQGTLVTVSS VL: DIQMTQSPSSLSASVGDRVTITCKASQSVINDAAWYQQKPGKAPKLLIYYTSHRYTGVPSRFSGSGSGTDFTLTISSLQEDFATYYCQQDYTSPWTFGQGTKVEIKR | 9.2 nM | 
2B.6 (Fab, V domains shown) VH: EVQLVQSGAEVKKPGASVKVSCKASGYTFTDYFIHWVRQAPGQGLEWIAGIVYDATGFTTYADLFKGRVTITIDFSTSTAYLELSSLRSEDTAVYYCARGGIFYGMDYWGQGTLVTVSS VL: DIQMTQSPSSLSASVGDRVTITCKASQSVINDAAWYQQKPGKAPKLLIYYTSHRYTGVPSRFSGSGSGTDFTLTISSLQEDFATYYCQQDYTSPWTFGQGTKVEIKR | ~1000 nM | 
1C.24 (Fab, V domains shown) VH: EVQLVQSGAEVKKPGASVKVSCKASGYTFTDYFIHWVRQAPGQGLEWIAGIVYDATGFTTYADSFKGRVTITRDTSTSTAYLELSSLRSEDTAVYYCARGGIFYGMDYWGQGTLVTVSS VL: DIQMTQSPSSLSASVGDRVTITCKASQSVINDAAWYQQKPGKAPKLLIYYTSHRYTGVPSRFSGSGSGTDFTLTISSLQEDFATYYCQQDYLHPWTFGQGTKVEIKR | ~1000 nM | 
2B.64 (Fab, V domains shown) VH: EVQLVQSGAEVKKPGASVKVSCKASGYTFTDYFIHWVRQAPGQGLEWIAGIVYDATGFTTYADSFKGRFTITRDTSTSTVYLELSSLRSEDTAVYYCARGGIFYGMDYWGQGTLVTVSS VL: DIQMTQSPSSLSASVGDRVTITCKASQSVINDAAWYQQKPGKAPKLLIYYTSHRYTGVPSRFSGSGSGTDFTLTISSLQEDFATYYCQQDYTSPWTFGQGTKVEIKR | ~1000 nM | 
1C.27 (Fab, V domains shown) VH: EVQLVQSGAEVKKPGASVKVSCKASGYTFTDYFIHWVRQAPGQGLEWIGGIVYDATGFTIYADDFKGRVTITRDTSTSTAYLELSSLRSEDTAVYYCARGGIFYGMDYWGQGTLVTVSS VL: DIQMTQSPSSLSASVGDRVTITCKASQSVINDAAWYQQKPGKAPKLLIYYTSHRYTGVPSRFSGSGSGTDFTLTISSLQEDFATYYCQQDYTHPWTFGQGTKVEIKR | 18.2 nM | 
1C.93 (Fab, V domains shown) VH: EVQLVQSGAEVKKPGASVKVSCKASGYTFTDYFIHWVRQAPGQGLEWIGGIVYDATGFTVYADDFKGRVTITRDTSTSTAYLELSSLRSEDTAVYYCARGGIFYGMDYWGQGTLVTVSS VL: DIQMTQSPSSLSASVGDRVTITCKASQSVINDAAWYQQKPGKAPKLLIYYTSHRYTGVPSRFSGSGSGTDFTLTISSLQEDFATYYCQQDYTHPWTFGQGTKVEIKR | ~1000 nM | 
1C.3 (Fab, V domains shown) VH: EVQLVQSGAEVKKPGASVKVSCKASGYTFTDYFIHWVRQAPGQGLEWIGGIVYDATGFTTYAVEFKGRVTITRDTSTSTAYLELSSLRSEDTAVYYCARGGIFYGMDYWGQGTLVTVSS VL: DIQMTQSPSSLSASVGDRVTITCKASQSVINDAAWYQQKPGKAPKLLIYYTSHRYTGVPSRFSGSGSGTDFTLTISSLQEDFATYYCQQDYTHPWTFGQGTKVEIKR | ~1000 nM | 
E7 as human IgG1 (antibody, V domains shown, also called IL4/IL5 dual specific antibody E7) VH: EVQLVQSGAEVKKPGASVKVSCKASGYTFTDYFIHWVRQAPGQGLEWIAGIVYDATGFTTYADDFKGRVTITRDTSTSTAYLELSSLRSEDTAVYYCARGGIFYGMDYWGQGTLVTVSS VL: DIQMTQSPSSLSASVGDRVTITCKASQSVINDAAWYQQKPGKAPKLLIYYTSHRYTGVPSRFSGSGSGTDFTLTISSLQEDFATYYCQQDYTSPWTFGQGTKVEIKR |  | binding result [1]: no binding (tested: 250 nM); binding result [2]: no binding (tested: 250 nM); binding result [3]: no binding (tested: 250 nM)

Reference: patent US20160257744A1 (Genentech, published 2016)
